B1: S10A (designed binder)
chain: MKIEEHHHHHHSSGRENLYFQGGAAQPAAPVDSIQAEEWYFGKLGRKDAERQLLSFGNPRGTFLIRESETTKGAYALSIRDWDDMKGDHVKHYKIRKLDNGGYYITTRAQFETLQQLVQHYSERAAGLSSRLVVPSHKGAAA
B2: S10V K15L (designed binder)
chain: MKIEEHHHHHHSSGRENLYFQGGAAQPAAPVDSIQAEEWYFGKLGRKDAERQLLSFGNPRGTFLIRESETTKGAYVLSIRDWDDMKGDHVKHYLIRKLDNGGYYITTRAQFETLQQLVQHYSERAAGLSSRLVVPSHKGAAA
B3: S10V (designed binder)
chain: MKIEEHHHHHHSSGRENLYFQGGAAQPAAPVDSIQAEEWYFGKLGRKDAERQLLSFGNPRGTFLIRESETTKGAYVLSIRDWDDMKGDHVKHYKIRKLDNGGYYITTRAQFETLQQLVQHYSERAAGLSSRLVVPSHKGAAA
B4: K2E T8V S10A K15I (designed binder)
chain: MKIEEHHHHHHSSGRENLYFQGGAAQPAAPVDSIQAEEWYFGKLGREDAERQLLSFGNPRGTFLIRESETVKGAYALSIRDWDDMKGDHVKHYIIRKLDNGGYYITTRAQFETLQQLVQHYSERAAGLSSRLVVPSHKGAAA
B5: T7S S10A K15L (designed binder)
chain: MKIEEHHHHHHSSGRENLYFQGGAAQPAAPVDSIQAEEWYFGKLGRKDAERQLLSFGNPRGTFLIRESESTKGAYALSIRDWDDMKGDHVKHYLIRKLDNGGYYITTRAQFETLQQLVQHYSERAAGLSSRLVVPSHKGAAA
B6: T8V S10A K15I (designed binder)
chain: MKIEEHHHHHHSSGRENLYFQGGAAQPAAPVDSIQAEEWYFGKLGRKDAERQLLSFGNPRGTFLIRESETVKGAYALSIRDWDDMKGDHVKHYIIRKLDNGGYYITTRAQFETLQQLVQHYSERAAGLSSRLVVPSHKGAAA
B7: none (wild-type) (other)
chain: MKIEEHHHHHHSSGRENLYFQGGAAQPAAPVDSIQAEEWYFGKLGRKDAERQLLSFGNPRGTFLIRESETTKGAYSLSIRDWDDMKGDHVKHYKIRKLDNGGYYITTRAQFETLQQLVQHYSERAAGLSSRLVVPSHKGAAA
B8: S10A K15L (designed binder)
chain: MKIEEHHHHHHSSGRENLYFQGGAAQPAAPVDSIQAEEWYFGKLGRKDAERQLLSFGNPRGTFLIRESETTKGAYALSIRDWDDMKGDHVKHYLIRKLDNGGYYITTRAQFETLQQLVQHYSERAAGLSSRLVVPSHKGAAA
B9: T8V K15L (designed binder)
chain: MKIEEHHHHHHSSGRENLYFQGGAAQPAAPVDSIQAEEWYFGKLGRKDAERQLLSFGNPRGTFLIRESETVKGAYSLSIRDWDDMKGDHVKHYLIRKLDNGGYYITTRAQFETLQQLVQHYSERAAGLSSRLVVPSHKGAAA
B10: T8I S10A K15L (designed binder)
chain: MKIEEHHHHHHSSGRENLYFQGGAAQPAAPVDSIQAEEWYFGKLGRKDAERQLLSFGNPRGTFLIRESETIKGAYALSIRDWDDMKGDHVKHYLIRKLDNGGYYITTRAQFETLQQLVQHYSERAAGLSSRLVVPSHKGAAA
B11: ΔT8 S10A K15L (designed binder)
chain: MKIEEHHHHHHSSGRENLYFQGGAAQPAAPVDSIQAEEWYFGKLGRKDAERQLLSFGNPRGTFLIRESETTKGAYSLSIRDWDDMKGDHVKHYKIRKLDNGGYYITTRAQFETLQQLVQHYSERAAGLSSRLVVPSHKGAAA
B12: T8V S10A K15L (designed binder)
chain: MKIEEHHHHHHSSGRENLYFQGGAAQPAAPVDSIQAEEWYFGKLGRKDAERQLLSFGNPRGTFLIRESETVKGAYALSIRDWDDMKGDHVKHYLIRKLDNGGYYITTRAQFETLQQLVQHYSERAAGLSSRLVVPSHKGAAA
B13: K15L (designed binder)
chain: MKIEEHHHHHHSSGRENLYFQGGAAQPAAPVDSIQAEEWYFGKLGRKDAERQLLSFGNPRGTFLIRESETTKGAYSLSIRDWDDMKGDHVKHYLIRKLDNGGYYITTRAQFETLQQLVQHYSERAAGLSSRLVVPSHKGAAA
B14: T8V (designed binder)
chain: MKIEEHHHHHHSSGRENLYFQGGAAQPAAPVDSIQAEEWYFGKLGRKDAERQLLSFGNPRGTFLIRESETVKGAYSLSIRDWDDMKGDHVKHYKIRKLDNGGYYITTRAQFETLQQLVQHYSERAAGLSSRLVVPSHKGAAA

Experiments:
Assay in all cases: fluorescence polarization
[1] = target: SIG11-pY668
[2] = target: EGFR-pY1110
[3] = target: RSKL-pY423
[4] = target: EGFR-pY978
[5] = target: TRAF7-pY275mod
[6] = target: VEGFR1-pY1213mod
[7] = target: MidT-pY324

Row | Binder | Kd [1] [nM] | Kd [2] [nM] | Kd [3] [nM] | Kd [4] [nM] | Kd [5] [nM] | Kd [6] [nM] | Kd [7] [nM]
1 | B1 | 48 | 13000 | 2500 | 1100 | 1300 | 5800 | 120
2 | B2 | 320 | 4400 | 1500 | 430 | 2100 | 1600 | 94
3 | B3 | 660 | 34000 | 6500 | 5500 | 4500 | 9000 | 360
4 | B4 | 900 | 3800 | 2500 | 170 | 990 | 580 | 280
5 | B5 | 71 | 1600 | 1500 | 210 | 300 | 640 | 49
6 | B6 | 190 | 1400 | 880 | 130 | 450 | 410 | 98
7 | B7 | 430 | 26000 | 12000 | – | 6000 | – | 490
8 | B8 | 120 | 2000 | 1600 | 130 | 480 | 400 | 110
9 | B9 | 150 | 1700 | 530 | 120 | 450 | 440 | 140
10 | B10 | 120 | 700 | 190 | 32 | 330 | 180 | 43
11 | B11 | 550 | 15000 | 6100 | – | 2700 | – | 260
12 | B12 | 26 | 340 | 77 | 8.5 | 60 | 58 | 11
13 | B13 | 450 | 5800 | 3300 | 670 | 2200 | 2800 | 420
14 | B14 | 1200 | 41000 | 14000 | 2400 | 5800 | 24000 | 370

From patent US20190271705A1 (published 2019)
